Targets include CDK5/p25(h) (human) (UniProt Q00535); CaMKIIβ(h) (human) (UniProt Q13554); EphB3(h) (human) (UniProt P54753); HIPK1(h) (human) (UniProt Q86Z02); MLCK(h) (human); Met(D1246N)(h) (human) (UniProt P08581); NEK6(h) (human) (UniProt Q9HC98); PKG1α(h) (human) (UniProt Q13976); Rsk3(h) (human) (UniProt Q15349); Rsk4(h) (human) (UniProt Q9UK32); SGK(h) (human) (UniProt O00141); Src(1-530)(h) (human) (UniProt P12931); Syk(h) (human) (UniProt P43405); cKit(h) (human) (UniProt P10721); cSRC(h) (human) (UniProt P12931).

Common to all, as to test: cell-based or functional assay
For a further experiment, the target named is T1, Axl(h) (human) (UniProt P30530).
T1 sequence (looked up): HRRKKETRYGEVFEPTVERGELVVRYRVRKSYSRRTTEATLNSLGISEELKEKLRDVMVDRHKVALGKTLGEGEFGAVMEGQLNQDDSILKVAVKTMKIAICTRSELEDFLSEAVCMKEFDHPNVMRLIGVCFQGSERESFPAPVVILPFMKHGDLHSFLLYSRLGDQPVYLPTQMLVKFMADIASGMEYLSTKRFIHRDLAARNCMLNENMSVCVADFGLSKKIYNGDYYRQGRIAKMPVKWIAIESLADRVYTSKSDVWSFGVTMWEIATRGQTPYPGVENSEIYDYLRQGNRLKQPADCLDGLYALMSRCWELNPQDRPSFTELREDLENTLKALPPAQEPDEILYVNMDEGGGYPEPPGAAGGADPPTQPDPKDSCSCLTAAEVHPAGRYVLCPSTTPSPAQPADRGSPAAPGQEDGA

Experiment [1] deals with CDK7/cyclinH/MAT1(h) (human) (UniProt P50613).
The target of another experiment is T2, EphA5(h) (human) (UniProt P54756).
T2 sequence (looked up): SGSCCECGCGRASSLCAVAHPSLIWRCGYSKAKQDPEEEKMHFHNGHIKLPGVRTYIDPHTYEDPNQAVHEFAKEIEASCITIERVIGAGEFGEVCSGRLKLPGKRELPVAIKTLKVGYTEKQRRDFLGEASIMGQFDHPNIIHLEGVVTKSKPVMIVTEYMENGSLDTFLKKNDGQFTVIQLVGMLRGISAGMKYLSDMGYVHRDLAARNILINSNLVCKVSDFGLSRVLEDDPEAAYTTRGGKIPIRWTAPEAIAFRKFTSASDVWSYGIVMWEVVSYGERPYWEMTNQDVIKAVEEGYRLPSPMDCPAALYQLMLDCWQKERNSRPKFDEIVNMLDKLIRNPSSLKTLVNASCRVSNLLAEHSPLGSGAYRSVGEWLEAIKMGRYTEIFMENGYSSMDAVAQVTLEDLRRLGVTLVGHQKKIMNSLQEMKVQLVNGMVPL

For another experiment, the target named is T3, Flt3(D835Y)(h) (human) (UniProt P36888).
T3 sequence (looked up): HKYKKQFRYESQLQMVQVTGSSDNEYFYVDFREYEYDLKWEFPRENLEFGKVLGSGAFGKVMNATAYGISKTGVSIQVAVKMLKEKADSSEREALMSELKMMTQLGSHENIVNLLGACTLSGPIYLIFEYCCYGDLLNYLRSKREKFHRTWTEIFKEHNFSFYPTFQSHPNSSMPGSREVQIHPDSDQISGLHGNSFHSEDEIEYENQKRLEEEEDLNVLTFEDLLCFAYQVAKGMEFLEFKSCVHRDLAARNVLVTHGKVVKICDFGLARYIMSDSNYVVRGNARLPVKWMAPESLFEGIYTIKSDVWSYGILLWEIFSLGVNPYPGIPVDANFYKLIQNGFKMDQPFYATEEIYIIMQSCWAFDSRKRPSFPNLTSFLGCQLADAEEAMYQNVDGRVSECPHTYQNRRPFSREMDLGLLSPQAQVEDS

In the next experiment the target is T4, TAO3(h) (human) (UniProt Q9H2K8).
T4 sequence (looked up): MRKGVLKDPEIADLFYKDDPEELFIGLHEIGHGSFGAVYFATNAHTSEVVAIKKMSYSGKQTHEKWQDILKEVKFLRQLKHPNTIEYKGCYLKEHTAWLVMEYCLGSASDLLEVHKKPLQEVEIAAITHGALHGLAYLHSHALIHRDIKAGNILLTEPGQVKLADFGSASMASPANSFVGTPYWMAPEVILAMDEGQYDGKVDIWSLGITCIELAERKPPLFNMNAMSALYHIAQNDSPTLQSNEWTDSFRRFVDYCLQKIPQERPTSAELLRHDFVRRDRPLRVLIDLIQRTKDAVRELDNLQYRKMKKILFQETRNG

The target in the next experiment is T5, ULK3(h) (human) (UniProt Q6PHR2).
T5 sequence (looked up): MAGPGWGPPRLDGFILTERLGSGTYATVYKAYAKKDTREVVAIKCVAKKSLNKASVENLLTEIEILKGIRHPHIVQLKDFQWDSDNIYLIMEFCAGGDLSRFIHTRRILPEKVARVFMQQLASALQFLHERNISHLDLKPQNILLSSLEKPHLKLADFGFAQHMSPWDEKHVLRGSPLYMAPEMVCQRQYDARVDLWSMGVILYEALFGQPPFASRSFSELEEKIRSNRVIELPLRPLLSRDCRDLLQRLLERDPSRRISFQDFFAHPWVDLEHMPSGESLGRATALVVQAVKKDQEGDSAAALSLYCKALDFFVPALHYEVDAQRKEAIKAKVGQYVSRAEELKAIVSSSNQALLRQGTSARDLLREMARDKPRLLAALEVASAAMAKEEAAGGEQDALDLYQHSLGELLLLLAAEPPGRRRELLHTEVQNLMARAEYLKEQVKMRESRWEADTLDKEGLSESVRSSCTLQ

Chain of CDK7/cyclinH/MAT1(h) (human) (P50613 whole entry, chain 1 of 3): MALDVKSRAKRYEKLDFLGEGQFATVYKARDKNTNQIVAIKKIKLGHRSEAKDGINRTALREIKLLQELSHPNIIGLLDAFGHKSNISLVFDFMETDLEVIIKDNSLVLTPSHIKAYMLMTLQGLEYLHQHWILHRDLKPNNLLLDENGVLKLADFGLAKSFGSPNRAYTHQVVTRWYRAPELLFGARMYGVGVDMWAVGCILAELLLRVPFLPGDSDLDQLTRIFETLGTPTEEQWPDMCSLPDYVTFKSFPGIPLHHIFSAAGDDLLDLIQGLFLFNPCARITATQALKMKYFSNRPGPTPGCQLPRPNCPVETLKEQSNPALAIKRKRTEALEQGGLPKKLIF
Chain of CDK7/cyclinH/MAT1(h) (human) (P51946 whole entry, chain 2 of 3, further chain): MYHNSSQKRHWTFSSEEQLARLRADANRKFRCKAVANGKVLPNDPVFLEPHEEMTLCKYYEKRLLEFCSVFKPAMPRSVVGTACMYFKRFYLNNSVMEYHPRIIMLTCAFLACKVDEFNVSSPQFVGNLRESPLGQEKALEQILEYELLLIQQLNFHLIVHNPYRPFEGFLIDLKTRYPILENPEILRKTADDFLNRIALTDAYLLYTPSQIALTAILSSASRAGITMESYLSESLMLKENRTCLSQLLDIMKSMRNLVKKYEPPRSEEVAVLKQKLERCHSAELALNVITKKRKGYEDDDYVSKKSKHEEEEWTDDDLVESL
Chain of CDK7/cyclinH/MAT1(h) (human) (P51948 whole entry, chain 3 of 3, further chain): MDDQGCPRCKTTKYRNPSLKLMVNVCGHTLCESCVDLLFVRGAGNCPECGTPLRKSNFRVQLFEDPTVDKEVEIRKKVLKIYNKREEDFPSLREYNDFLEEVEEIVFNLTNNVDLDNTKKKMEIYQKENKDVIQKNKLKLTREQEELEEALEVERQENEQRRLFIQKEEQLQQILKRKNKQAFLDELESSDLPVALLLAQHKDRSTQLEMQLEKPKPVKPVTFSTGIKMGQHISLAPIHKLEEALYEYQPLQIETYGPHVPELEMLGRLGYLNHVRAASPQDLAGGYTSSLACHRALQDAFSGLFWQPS
Chain of Rsk4(h) (human) (Q9UK32 whole entry): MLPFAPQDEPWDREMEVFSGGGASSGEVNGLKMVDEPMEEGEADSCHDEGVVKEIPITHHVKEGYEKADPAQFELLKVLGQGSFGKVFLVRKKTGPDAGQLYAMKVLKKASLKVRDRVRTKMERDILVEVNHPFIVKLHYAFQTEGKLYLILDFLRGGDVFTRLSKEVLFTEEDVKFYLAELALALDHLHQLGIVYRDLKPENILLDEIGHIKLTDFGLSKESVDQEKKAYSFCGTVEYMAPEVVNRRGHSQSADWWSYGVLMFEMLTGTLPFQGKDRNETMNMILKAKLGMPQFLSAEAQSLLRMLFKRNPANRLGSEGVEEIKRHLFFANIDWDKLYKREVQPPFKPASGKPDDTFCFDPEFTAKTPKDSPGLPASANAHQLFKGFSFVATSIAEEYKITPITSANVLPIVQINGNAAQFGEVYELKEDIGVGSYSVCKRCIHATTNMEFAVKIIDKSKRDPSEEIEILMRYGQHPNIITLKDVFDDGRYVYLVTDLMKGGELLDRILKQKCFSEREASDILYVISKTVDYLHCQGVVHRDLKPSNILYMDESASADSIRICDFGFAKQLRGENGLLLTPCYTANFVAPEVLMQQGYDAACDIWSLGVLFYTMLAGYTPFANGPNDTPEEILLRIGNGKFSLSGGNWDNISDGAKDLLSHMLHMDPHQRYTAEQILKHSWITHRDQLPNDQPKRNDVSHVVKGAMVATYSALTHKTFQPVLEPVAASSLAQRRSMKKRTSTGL
Chain of Rsk3(h) (human) (Q15349 whole entry): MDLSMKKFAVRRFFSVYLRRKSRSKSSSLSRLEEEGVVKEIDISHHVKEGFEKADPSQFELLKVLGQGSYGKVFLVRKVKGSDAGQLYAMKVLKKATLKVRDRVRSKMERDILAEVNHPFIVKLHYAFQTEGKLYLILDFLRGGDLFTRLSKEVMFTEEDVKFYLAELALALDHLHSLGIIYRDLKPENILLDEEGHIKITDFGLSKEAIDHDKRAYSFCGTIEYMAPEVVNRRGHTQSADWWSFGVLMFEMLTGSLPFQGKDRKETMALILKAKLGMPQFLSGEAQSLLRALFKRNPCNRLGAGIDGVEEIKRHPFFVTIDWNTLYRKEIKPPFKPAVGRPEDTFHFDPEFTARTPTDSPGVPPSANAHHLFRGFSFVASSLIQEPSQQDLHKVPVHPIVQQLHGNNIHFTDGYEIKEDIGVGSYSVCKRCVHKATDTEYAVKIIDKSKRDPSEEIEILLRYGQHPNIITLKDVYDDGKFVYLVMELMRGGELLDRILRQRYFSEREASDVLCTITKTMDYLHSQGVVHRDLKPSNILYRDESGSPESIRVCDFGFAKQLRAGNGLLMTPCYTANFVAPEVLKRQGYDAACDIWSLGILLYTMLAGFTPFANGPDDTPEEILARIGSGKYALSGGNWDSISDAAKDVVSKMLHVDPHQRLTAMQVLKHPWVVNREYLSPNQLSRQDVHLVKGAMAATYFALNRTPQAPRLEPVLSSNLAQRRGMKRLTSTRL
Chain of cKit(h) (human) (P10721 544-976): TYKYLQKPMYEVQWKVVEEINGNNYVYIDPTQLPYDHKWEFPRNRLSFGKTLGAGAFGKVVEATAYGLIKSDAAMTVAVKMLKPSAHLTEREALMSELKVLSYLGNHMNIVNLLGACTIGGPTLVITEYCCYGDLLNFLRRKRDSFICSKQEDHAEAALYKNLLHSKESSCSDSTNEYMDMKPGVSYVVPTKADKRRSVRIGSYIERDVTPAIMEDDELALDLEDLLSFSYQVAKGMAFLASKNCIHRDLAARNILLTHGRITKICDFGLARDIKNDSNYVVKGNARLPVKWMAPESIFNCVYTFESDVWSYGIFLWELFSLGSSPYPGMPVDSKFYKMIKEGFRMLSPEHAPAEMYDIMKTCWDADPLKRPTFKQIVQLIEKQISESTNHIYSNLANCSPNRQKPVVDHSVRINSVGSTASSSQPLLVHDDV
Chain of CaMKIIβ(h) (human) (Q13554 whole entry): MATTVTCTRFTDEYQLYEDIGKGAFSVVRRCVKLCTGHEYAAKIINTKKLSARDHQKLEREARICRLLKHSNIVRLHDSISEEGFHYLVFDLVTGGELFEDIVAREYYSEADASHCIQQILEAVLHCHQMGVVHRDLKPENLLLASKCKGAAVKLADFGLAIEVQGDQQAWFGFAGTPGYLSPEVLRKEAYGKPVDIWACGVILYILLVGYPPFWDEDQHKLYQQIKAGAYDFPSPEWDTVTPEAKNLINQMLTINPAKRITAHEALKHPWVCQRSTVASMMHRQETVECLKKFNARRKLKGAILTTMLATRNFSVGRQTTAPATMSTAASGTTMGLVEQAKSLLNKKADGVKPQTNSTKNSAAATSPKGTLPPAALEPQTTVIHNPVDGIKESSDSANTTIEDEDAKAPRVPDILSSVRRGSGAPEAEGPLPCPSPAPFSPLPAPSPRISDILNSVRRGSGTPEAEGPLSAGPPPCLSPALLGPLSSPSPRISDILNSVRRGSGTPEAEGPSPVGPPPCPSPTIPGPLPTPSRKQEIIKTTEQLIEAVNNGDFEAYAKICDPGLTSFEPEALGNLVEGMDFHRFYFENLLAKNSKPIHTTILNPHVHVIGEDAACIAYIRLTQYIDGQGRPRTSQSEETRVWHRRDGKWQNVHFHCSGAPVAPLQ
Chain of EphB3(h) (human) (P54753 581-998 limits assumed): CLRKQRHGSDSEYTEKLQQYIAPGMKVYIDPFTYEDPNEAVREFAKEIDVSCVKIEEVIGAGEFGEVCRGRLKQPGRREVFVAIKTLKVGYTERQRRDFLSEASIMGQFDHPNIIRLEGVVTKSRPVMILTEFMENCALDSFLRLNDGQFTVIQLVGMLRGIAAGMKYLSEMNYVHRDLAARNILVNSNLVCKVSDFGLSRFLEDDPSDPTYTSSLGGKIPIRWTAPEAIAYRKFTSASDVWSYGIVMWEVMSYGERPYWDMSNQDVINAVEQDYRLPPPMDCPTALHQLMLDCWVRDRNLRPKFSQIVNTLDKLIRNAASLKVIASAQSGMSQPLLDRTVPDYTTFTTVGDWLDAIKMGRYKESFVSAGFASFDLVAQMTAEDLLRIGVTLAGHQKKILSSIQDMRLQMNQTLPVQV
Chain of SGK(h) (human) (O00141 60-431 limits assumed): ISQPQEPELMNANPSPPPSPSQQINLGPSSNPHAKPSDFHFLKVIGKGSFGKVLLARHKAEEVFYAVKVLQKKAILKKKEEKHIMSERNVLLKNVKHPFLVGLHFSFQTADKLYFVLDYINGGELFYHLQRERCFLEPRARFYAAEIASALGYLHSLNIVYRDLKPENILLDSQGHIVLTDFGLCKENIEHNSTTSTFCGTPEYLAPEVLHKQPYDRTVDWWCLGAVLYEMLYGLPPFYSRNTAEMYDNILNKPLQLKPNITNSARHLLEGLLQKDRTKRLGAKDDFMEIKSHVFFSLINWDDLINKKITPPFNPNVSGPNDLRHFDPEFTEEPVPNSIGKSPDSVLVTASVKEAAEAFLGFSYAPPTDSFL

On to MMI-0300 (peptide), for which the % activity at 100 µM was determined as 52% with Axl(h) (human); 89% in the experiment with CDK5/p25(h) (human); 65% in [1]; 2% with CaMKIIβ(h) (human); 18% in the experiment with EphA5(h) (human); 62% with EphB3(h) (human). The % activity at 100 µM stood at 80% with Flt3(D835Y)(h) (human); 74% with HIPK1(h) (human); 2% with MLCK(h) (human); 82% with Met(D1246N)(h) (human); 82% in the experiment with NEK6(h) (human); 64% with PKG1α(h) (human). Moreover, the % activity at 100 µM with Rsk3(h) (human) came to 76%; in the experiment with Rsk4(h) (human), 90%; with SGK(h) (human) it was 48%; with Src(1-530)(h) (human), 23%; with Syk(h) (human), 24%; with TAO3(h) (human), 77%. In addition, the % activity at 100 µM amounted to 167% in the experiment with ULK3(h) (human), 53% with cKit(h) (human) and 26% with cSRC(h) (human).

For the substance MMI-0500 (peptide), the % activity at 100 µM with Axl(h) (human) is 12%; with CDK5/p25(h) (human), 66%; in experiment [1], 15%; with CaMKIIβ(h) (human), 3%; in the experiment with EphA5(h) (human), 42%; with EphB3(h) (human) it was 79%. Moreover, the % activity at 100 µM with Flt3(D835Y)(h) (human) is 65%; with HIPK1(h) (human) it was 47%; in the experiment with MLCK(h) (human) it was 0%; with Met(D1246N)(h) (human) it was 90%; with NEK6(h) (human) it was 49%; with PKG1α(h) (human), 25%. Besides, the % activity at 100 µM amounted to 23% with Rsk3(h) (human); 29% in the experiment with Rsk4(h) (human); 2% with SGK(h) (human); 21% in the experiment with Src(1-530)(h) (human); 5% with Syk(h) (human); 12% with TAO3(h) (human). The % activity at 100 µM worked out at 177% with ULK3(h) (human), 45% with cKit(h) (human) and 30% in the experiment with cSRC(h) (human).

Take MMI-0400 (peptide): the % activity at 100 µM came out at 41% with Axl(h) (human); 92% in the experiment with CDK5/p25(h) (human); 47% in experiment [1]; 11% with CaMKIIβ(h) (human); 24% with EphA5(h) (human); 47% with EphB3(h) (human). Also, the % activity at 100 µM in the experiment with Flt3(D835Y)(h) (human) was 71%; with HIPK1(h) (human) it was 91%; with MLCK(h) (human), 1%; with Met(D1246N)(h) (human), 31%; with NEK6(h) (human), 85%; in the experiment with PKG1α(h) (human), 58%. Moreover, the % activity at 100 µM worked out at 71% with Rsk3(h) (human); 91% in the experiment with Rsk4(h) (human); 54% with SGK(h) (human); 19% with Src(1-530)(h) (human); 9% with Syk(h) (human); 67% in the experiment with TAO3(h) (human). Further, the results for the % activity at 100 µM in the experiment with ULK3(h) (human), with cKit(h) (human) and in the experiment with cSRC(h) (human) were 147%, 43% and 14%, respectively.
